From patent US20260258125A1 (NONA BIOSCIENCES SUZHOU, published 2026)

Legend:
[1] = molecular target: T1, human CEACAM6 on 293T cells (293T-huCEACAM6 cells) (human, UniProt P40199 35-320); assay: flow cytometry on 293T-huCEACAM6 cells with against without 100 nM soluble CEACAM6
T1 construct: whole, on cells
T1 sequence (looked up): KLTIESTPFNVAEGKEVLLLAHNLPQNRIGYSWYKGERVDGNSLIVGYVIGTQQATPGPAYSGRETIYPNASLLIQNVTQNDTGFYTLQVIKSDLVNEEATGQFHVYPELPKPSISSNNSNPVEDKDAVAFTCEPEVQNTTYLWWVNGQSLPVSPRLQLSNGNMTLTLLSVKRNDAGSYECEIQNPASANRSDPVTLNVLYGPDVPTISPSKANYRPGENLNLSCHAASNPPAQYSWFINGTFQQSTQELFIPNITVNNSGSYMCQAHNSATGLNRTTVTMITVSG

human CEACAM3 protein = molecular target: T2, human CEACAM3 protein (human, UniProt P40198 35-155); assay: ELISA, human CEACAM3 protein coated on the plate, anti-human Fc-HRP, OD450
T2 construct: Bought protein; also called huCEACAM3
T2 sequence (looked up): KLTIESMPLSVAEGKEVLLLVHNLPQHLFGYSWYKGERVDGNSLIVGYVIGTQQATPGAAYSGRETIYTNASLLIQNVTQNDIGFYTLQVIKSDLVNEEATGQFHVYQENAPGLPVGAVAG
Description: Binding of recombinant anti-CEACAM5/6 dual-binding monoclonal antibodies against human and cynomolgus CEACAM5, and human CEACAM6 (Uniprot P40199), human CEACAM 1, 3 (NP_001806.2, Sino Biological 11933-H08H) and 8 (NP_001807.2, Acro Bio CE8-H5224) were detected by ELISA. Anti-CEACAM5/6 dual-antibodies were serially diluted in staining buffer (PBS containing 2% FBS). […] ELISA was used to test the binding between antibody containing supernatant or purified antibodies and the antigen. Briefly, the antigens were coated on a 96-well high binding plate overnight at 4° C. The plate was washed with PBST three times, incubated with blocking buffer (2% Bovine Serum Albumin) for one hour at 37° C., washed with PBST three times and incubated with antibody containing supernatant or purified antibodies at desired dilutions or concentrations for one hour at 37° C. A secondary antibody, anti-human Fc-HRP (Jackson Laboratory, 109-035-097) was used for detection of the targeted antibody. TMB and stopping solution were used for detection of HRP signal. The HRP signal was read on a SPECTRAMAX plate reader.

[2] = molecular target: T3, recombinant human CEACAM6 Fc-tag protein (human, UniProt P40199 35-320, limits assumed); assay: Octet (BLI), antibody on AHC sensor, antigen in solution
T3 construct: also called huCEACAM6 (Octet); not shown: Fc tag
T3 sequence (looked up): T1 sequence (looked up)
Procedure: (§1) Binding kinetics of recombinant anti-CEACAM5/6 antibodies to CEACAM5 and CEACAM6 were analyzed by Octet. In Octet analysis, recombinant human CEACAM5 Fc-tag protein (#Uniprot P06731) or CEACAM6 Fc-tag protein (Uniprot P40199) was serially diluted with 1×kinetic buffer (Fortebio). Anti-CEACAM5/6 dual-binding antibodies were diluted to 5 μg/mL. Then diluted antibodies, antigen and regeneration buffer (10 mM glycine pH 1.75) were added to 96-well plates (Greiner). Rate constants for association and dissociation were measured using AHC sensor (Fortebio). The sensor surface was regenerated after each binding experiment with regeneration buffer. The traces were processed using ForteBio Data Analysis Software (version 8.0, Pall ForteBio, CA, USA).

[3] = molecular target: T4, recombinant human CEACAM5 Fc-tag protein (human, UniProt P06731 35-685, limits assumed); assay: as above
T4 construct: also called huCEACAM5 (Octet); huCEACAM5-Fc; not shown: Fc tag
T4 sequence (looked up): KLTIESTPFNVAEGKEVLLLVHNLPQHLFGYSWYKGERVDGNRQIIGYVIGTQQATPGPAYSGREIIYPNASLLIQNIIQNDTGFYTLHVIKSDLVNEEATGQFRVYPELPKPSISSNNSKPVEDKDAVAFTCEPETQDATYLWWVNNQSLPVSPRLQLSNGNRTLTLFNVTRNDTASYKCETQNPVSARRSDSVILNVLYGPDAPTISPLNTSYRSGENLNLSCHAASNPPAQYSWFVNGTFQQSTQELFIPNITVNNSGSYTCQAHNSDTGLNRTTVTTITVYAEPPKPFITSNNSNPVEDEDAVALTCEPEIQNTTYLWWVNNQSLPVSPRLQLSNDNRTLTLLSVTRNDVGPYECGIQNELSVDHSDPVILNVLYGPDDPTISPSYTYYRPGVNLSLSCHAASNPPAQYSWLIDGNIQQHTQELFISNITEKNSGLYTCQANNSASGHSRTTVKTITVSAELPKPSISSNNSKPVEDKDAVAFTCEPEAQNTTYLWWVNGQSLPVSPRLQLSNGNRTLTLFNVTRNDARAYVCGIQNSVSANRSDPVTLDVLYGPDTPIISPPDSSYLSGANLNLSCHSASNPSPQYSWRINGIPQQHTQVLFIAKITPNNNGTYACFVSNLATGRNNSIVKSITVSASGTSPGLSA
Procedure: as §1

[4] = molecular target: T5, human CEACAM5 on 293T cells (293T-huCEACAM5 cells) (human, UniProt P06731 35-685); assay: flow cytometry on 293T-huCEACAM5 cells with against without 100 nM soluble CEACAM5
T5 construct: whole, on cells
T5 sequence (looked up): T4 sequence (looked up)

fold change of EC50 at the presence of 100 nM soluble protein [1]: 2.1 fold
binding result (human CEACAM3 protein): no binding (tested: 100 nM)
Kd [2]: 19.9 nM
Kd [3]: 5.48 nM
fold change of EC50 at the presence of 100 nM soluble protein [4]: 4.1 fold
B1: PR304294 (antibody, human IgG1, kappa, V domains shown)
VH: EVQLLESGGGLVQPGGSLRLSCAASGFTFSSYAMSWVRQAPGKGLEWVSAISGTTYNTYYAGSVKGRFTISRDNSKNTLYLQMNSLRAEDTAVYYCAKGISVAGYYYYGMDVWGQGTTVTVSS
VL: EIVMTQSPATLSVSPGERATLSCRASQSVISNLAWYQQKPGQAPRLLIYGASTRATGIPARFSGSGSGTEFTLTISSLQSEDFAVYYCHQYNNWPLTFGGGTKVEIKR
notes: Recombinant full antibody
